This note sets out measurements from US20100216170A1.

The target of experiment [1] is mutant membrane-bound TNFα on stably transfected CHO cells (B-220 cells) (UniProt P01375). The experiment is described as follows: FACS, beads with CHO-TNFα (B220), sample 2. On the technique in general: Flow cytometry measures light scatter and fluorescence of single cells or particles in a stream.
For experiment [2] the target is unchanged. Nature of the experiment: FACS, gate P4 (CHO cells with anti-CD19 beads), middle panel of FIG. 3.
For experiment [3] the target is unchanged. The experiment is described as follows: FACS, gate P4 (CHO cells with anti-CD19 beads), FIG. 4.

Chain of UniProt P01375 (P01375 whole entry, change not shown): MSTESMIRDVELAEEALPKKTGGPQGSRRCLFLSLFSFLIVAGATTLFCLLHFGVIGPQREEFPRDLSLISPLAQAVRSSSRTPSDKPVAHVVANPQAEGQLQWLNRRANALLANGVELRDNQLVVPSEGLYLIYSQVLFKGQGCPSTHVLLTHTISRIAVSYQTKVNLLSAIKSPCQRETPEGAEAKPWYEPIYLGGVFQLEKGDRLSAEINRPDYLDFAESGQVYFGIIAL

Substance “APC-labeled unrelated antibody (anti-CD19) coated on beads” returned a % bound beads in experiment [1] of 0.9%. Further, in experiment [2], the #Events was 6 events, the % Parent is 0.1% and the % Total is 0.1%. In experiment [3], the #Events came out at 2 events, the % Parent was determined as 0% and the % Total came out at 0%.
